Assay [1] concerns the target T1, biotinylated recombinant TPBG protein (Homo sapiens (Human), UniProt Q13641 32-355, Biotinylated; the number and positions of the biotin labels are not stated and the letters do not carry them.).
T1 sequence: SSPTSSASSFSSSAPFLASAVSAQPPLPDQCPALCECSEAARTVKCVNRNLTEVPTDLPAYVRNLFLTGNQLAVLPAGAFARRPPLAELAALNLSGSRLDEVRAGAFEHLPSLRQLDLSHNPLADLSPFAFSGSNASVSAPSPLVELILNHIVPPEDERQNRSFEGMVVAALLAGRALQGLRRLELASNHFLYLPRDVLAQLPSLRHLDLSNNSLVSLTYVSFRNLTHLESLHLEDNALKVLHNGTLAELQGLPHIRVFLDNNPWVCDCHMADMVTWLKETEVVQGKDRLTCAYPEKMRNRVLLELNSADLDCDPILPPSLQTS
Briefly: competitive ELISA; row antibody 5 ug/mL; competitor: coated 52C9E9F6. As for the experimental part: (§1) The purified antibodies to be tested were diluted to 1 μg/mL using PBS, and coated with high-adsorption of 96-well microplates at […]. After overnight coating at 4[…], 250 μL of blocking buffer (PBS containing 0.01% (v/v) Tween20 and 1% (w/w) BSA) was added to block coating at room temperature for 1 h, and 0.05 μg/mL of biotinylated recombinant TPBG protein was added to each well. Meanwhile, 5 μg/mL final concentration of competitive antibodies, i.e. the purified antibodies obtained from Embodiment 2 with the clone number of 12B12C7C3, 5G4H10G5, 37H9C5G2, 39A11G5F2, 52C9E9F6, 28D4E6A9, 36A10D8B12, 99E12C7H1, 103E2E9C2 and 106D5G3D10 were added and incubated at 25-37° C. for 1-2 h. The plates were washed three times with plate-washing buffer (PBS containing 0.01% (v/v) Tween20) and HRP (horseradish peroxidase)-labeled streptavidin (purchased from Sigma) was added. After incubating at 37° C. for 0.5 h, the plates were washed three times with plate-washing buffer (PBS containing 0.01% (v/v) Tween20), and 100 μL of TMB substrate was added to each well and the plates were further incubated at room temperature for 30 min prior to adding 100 μL of stop buffer (1.0N HCl) to each well. A₄₅₀ₙₘ values were read using an ELISA microplate reader (SpectraMax 384plus purchased from Molecular Device) and results were shown in FIG. 6. The higher the values of the competition rate, the closer the antigen surface of the two antibodies are.

The target in assay [2] is T1, biotinylated recombinant TPBG protein. Briefly: competitive ELISA; row antibody 5 ug/mL; competitor: coated 28D4E6A9. As for the experimental part:
as §1

Assay [3] shares this target. Briefly: competitive ELISA; row antibody 5 ug/mL; competitor: coated 106D5G3D10. As for the experimental part:
as §1

Assay [4] concerns the target T2, human TPBG-hFc (human, UniProt Q13641 32-355).
T2 construct: also called immunogen A; hFc tagged TPBG protein; not shown: The human IgG Fc fragment of the pCpC vector (Invitrogen V044-50) and any linker to it
T2 sequence: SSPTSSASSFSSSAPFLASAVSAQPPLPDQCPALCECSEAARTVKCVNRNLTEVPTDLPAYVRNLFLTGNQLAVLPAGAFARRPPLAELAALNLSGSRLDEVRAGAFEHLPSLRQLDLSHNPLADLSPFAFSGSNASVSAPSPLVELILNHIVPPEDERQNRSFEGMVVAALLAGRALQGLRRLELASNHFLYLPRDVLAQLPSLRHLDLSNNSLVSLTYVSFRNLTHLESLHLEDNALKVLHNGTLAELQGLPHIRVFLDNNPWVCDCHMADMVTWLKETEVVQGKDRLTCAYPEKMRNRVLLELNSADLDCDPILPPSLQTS
Briefly: ELISA, coated human TPBG-hFc 1.0 ug/mL; antibody 0.0002 nM. The procedure: The purified immunogen A (as for its method of preparation please refer to step 1 in Example 1) diluting with PBS to a final concentration of 1.0 μg/mL was aliquoted into a 96-well ELISA plate at 100 μL per well, and sealed with a parafilm and incubated at 4° C. overnight. The plate was washed twice with plate washing buffer (PBS containing 0.01% (v/v) Tween 20), and blocked with blocking buffer (PBS containing 0.01% (v/v) Tween 20 and 1% (w/w) BSA) at room temperature for 2 h. The blocking buffer was discarded, and 100 μL per well of the purified antibody obtained from Embodiment 2 was added. After incubating at 37° C. for 2 h, the plate was washed for three times with plate washing buffer (PBS containing 0.01% (v/v) Tween 20). HRP (horseradish peroxidase)-labeled secondary antibody (purchased from Sigma) was added and incubated at 37° C. for 2 h, and the plate was washed for three times using plate washing buffer (PBS containing 0.01% (v/v) Tween 20). 100 μL of TMB substrate was aliquoted into each well, incubated at room temperature for 30 min, and 100 μL of stop buffer (1.0N HCl) per well was subsequently added. A₄₅₀ₙₘ values were read using the ELISA plate reader (SpectraMax 384plus purchased from Molecular Device), and the results were shown in FIG. 6 and table 6. […] In Table 6 the IgG control herein is a mice IgG control, the data in the Table are OD₄₅₀ₘₙ values, and Blank means the OD₄₅₀ₘₙ value when there is only PBS buffer in the plate.

Assay [5] has as its target T1, biotinylated recombinant TPBG protein. Briefly: competitive ELISA; row antibody 5 ug/mL; competitor: coated 99E12C7H1. As for the experimental part: as §1
For assay [6] the target is unchanged. The experiment in a line: competitive ELISA; row antibody 5 ug/mL; competitor: coated 12B12C7C3. As for the experimental part: as §1
Assay [7] has the same target. The experiment in a line: competitive ELISA; row antibody 5 ug/mL; competitor: coated 36A10D8B12. As for the experimental part:
as §1

Competition rate and OD450nm data for 5 molecules are collected here from patent US20210198377A1 (XDCEXPLORER SHANGHAI, published 2021).

B1: 28D4E6A9 (antibody, V domains shown)
VH: DVQLVESGGGLVRPGGSLKLSCAASGFTFSNYVMSWARQSPEKRLEWVAEISTGGSHTYYSDTVTGRFTISRDNAKKALYLEMSSLRSEDTAIYYCIMFYYGSSYSMDYWGQGTSVTVSS
VL: DIQMTQSTSSLSASLGDRITISCRASQDIRNYLNWYQQKPDGTVKLLIYHTSRLHSGVPSRFSGSGSGTDYSLTISNLEQEDIATYFCQQGDTLPLTFGAGTRLELK
notes: Mouse hybridoma antibody purified from culture supernatant; also called TPBG antibody; lead antibody
Take B1: the competition rate in assay [1] came out at 0%; in assay [2], 96%; in assay [3], 5%; in assay [5] it was 11%; in assay [6], 24%; in assay [7], 75%. For the same molecule, the OD450nm in assay [4] came to 0.1 OD450nm.

B2: 37H9C5G2 (antibody, V domains shown)
VH: QVQLQQSDAELVRPGASVKMSCKVSGYTFTDHTIHWMKQRPEQGLEWIGYIYPRDGSGTYNEKFKGKATLTADKSSSTAYMQLNSLTSEDSAVYFCARDGSSHYWYFDVWGTGTTVTVSS
VL: DIQMTQSPASLSASVGETVTITCRASEIIYNYLAWYQQKQGKSPQLLVYNAKTLAEGVPSRFSGSYSGTQFSLNINSLQSEDFGIYYCQHHHDTPLTFGAGTKLDLK
notes: as for B1
Regarding B2, the competition rate in assay [1] was 5%; in assay [2], 58%; in assay [3] it was 4%; in assay [5] it was 7%; in assay [6], 6%; in assay [7], 94%. Also, the OD450nm in assay [4] is 0.09 OD450nm.

B3: 5G4H10G5 (antibody, V domains shown)
VH: EVQLVESGGDLVQPGGSLKLFCAASGFTFSTYGLSWVRQTPDKRLELVATITNNDGSAYYPDSVKGRFTISRDKAKNTLFLQMTSLKSEDTAMYYCARETGFGSSYLFDYWGQGTLVTVSA
VL: NIVMTQTPKFLLVSAGDRVTITCKASQSVSNDVAWYQQKPGQSPKLLIYFATNRYTGVPNRFTGSGYGTEFTFTISSVQAEDLAVYFCQQDYSSPTFGGGTKLEIK
notes: as for B1
With B3, the competition rate in assay [1] is 19%; in assay [2] it was -1%; in assay [3] it was 3%; in assay [5] it was 95%; in assay [6] it was 9%; in assay [7], 1%. Besides, the OD450nm in assay [4] amounted to 0.08 OD450nm.

B4: 39A11G5F2 (antibody, V domains shown)
VH: QVQLQQSGAELMKPGASMRLSCKATGYTFTGYWLEWIKRRPGHGLEWIGEILPGRGSTNYNEKFKGKATFTAETSSNTAYMQLTSLTTEDSAIYYCARGGRDFDNWGQGTTLTVSS
VL: DIQMTQSTSSLSASLGDRVTISCSASQGINNHLNWYQQKPDGTVKLLIYYTSSLHSGVPSRFSGSGSGTDYSLTISNLEPEDIAIYYCQQFSKLPYTFGGGTKVEMK
notes: as for B1
As to B4, the competition rate in assay [1] was found to be 95%; in assay [2] it was 0%; in assay [3], 4%; in assay [5], 16%; in assay [6] it was 9%; in assay [7] it was 0%. This molecule displayed an OD450nm in assay [4] of 0.09 OD450nm.

B5: 52C9E9F6 (antibody, V domains shown)
VH: QVQLQQSGAELMKPGASVKLSCKATGYTFTGYWIEWIKQRPGHGLEWIGEILPGRGSTDYNEKFKGKATFTADTSSNTAYMQLSSLTTEDSAIYYCTRGRLDFTYWGQGTLVTVSA
VL: DIQMTQTTSSLSASLGDRVTISCSASQGIRNYLNWYQQKPDGTVKLLIYYTSSLHSGVPSRFSGSGSGTDYSLTISNLEPEDIATYYCQQYSKVPWTFGGGTKLEIK
notes: as for B1
For B5, the competition rate in assay [1] is 97%; in assay [2], 17%; in assay [3], 7%; in assay [5], 18%; in assay [6], 27%; in assay [7] it was 19%. Also, in assay [4], the OD450nm came out at 0.09 OD450nm.
